This note sets out measurements from patent US20250114463A1, “LIVER-TARGETED DRUG AND USE THEREOF” (HANMI PHARM. CO., LTD., priority 2021, published 2025).

Common to all, as to assay: cell-based or functional assay
The target in one assay is human GCG receptor (human, UniProt P47871 26-477).
For a further assay, the target named is T1, human GIP receptor (human, UniProt P48546 22-466).
T1 sequence (looked up): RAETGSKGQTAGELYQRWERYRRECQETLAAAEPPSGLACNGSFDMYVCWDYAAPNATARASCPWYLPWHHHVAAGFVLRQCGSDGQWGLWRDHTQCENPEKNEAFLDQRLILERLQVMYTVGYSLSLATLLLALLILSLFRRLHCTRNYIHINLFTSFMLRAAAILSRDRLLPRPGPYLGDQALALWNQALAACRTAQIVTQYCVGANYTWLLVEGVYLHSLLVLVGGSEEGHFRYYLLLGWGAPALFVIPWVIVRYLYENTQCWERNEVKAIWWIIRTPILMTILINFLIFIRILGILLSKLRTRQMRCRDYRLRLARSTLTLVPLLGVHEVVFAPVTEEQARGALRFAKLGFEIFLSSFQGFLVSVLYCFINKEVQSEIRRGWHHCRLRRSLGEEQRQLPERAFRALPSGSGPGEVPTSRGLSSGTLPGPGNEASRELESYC

The target in the next assay is human GLP-1 receptor (human, UniProt P43220 24-463).

Bridges are numbered along the chain shown (N, C = ends). Where no end group is shown, it is not given here. [ ]: non-standard residue; d: D form. The star is where a group is joined. Acetyl(2-(4-imidazolyl)) = O=C(Cc1c[nH]cn1)*; Aib = CC(C)(N)C(=O)O Some results are limits rather than exact numbers.

Sequence of human GCG receptor (P47871 26-477): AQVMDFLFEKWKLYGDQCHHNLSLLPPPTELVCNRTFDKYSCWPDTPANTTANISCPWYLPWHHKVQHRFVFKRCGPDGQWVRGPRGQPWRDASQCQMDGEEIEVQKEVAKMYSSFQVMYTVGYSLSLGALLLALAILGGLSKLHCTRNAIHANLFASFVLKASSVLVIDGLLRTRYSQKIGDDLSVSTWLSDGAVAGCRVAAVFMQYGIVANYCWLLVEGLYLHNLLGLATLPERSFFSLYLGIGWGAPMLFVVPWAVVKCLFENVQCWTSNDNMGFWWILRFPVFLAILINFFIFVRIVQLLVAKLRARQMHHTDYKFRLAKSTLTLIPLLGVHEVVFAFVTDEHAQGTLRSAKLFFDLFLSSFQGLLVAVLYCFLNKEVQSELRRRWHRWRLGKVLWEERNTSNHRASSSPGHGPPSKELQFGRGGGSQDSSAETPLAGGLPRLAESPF

Consider Y[Aib]QGTFTSDYSKYLDECRAKDFVQWLLDHHPSSGQPPPS (bridge 16-20; not fully specified (C-terminus)) [triple agonist of SEQ ID NO: 66], for which the “in vitro Activity Compared to Native Peptide (%), vs Glucagon” value in the assay with human GCG receptor was 172%. The “in vitro Activity Compared to Native Peptide (%), vs GIP” value with human GIP receptor was 17.2%. Further, the “in vitro Activity Compared to Native Peptide (%), vs GLP-1” value in the assay with human GLP-1 receptor was found to be 15.8%.

As for H[Aib]QGTFTSDYSKYLDEKRQKEFVQWLLNTKC (bridge 16-20; not fully specified (C-terminus)) [triple agonist of SEQ ID NO: 58], the “in vitro Activity Compared to Native Peptide (%), vs Glucagon” value with human GCG receptor was 2.6%. The “in vitro Activity Compared to Native Peptide (%), vs GIP” value with human GIP receptor came out at 0.2%. For the same molecule, the “in vitro Activity Compared to Native Peptide (%), vs GLP-1” value with human GLP-1 receptor was 39.1%.

Turning to Y[Aib]QGTFTSDYSKYLDERACKDFVQWLLDHHPSSGQPPPS (bridge 16-20; not fully specified (C-terminus)) [triple agonist of SEQ ID NO: 71], in the assay with human GCG receptor, the “in vitro Activity Compared to Native Peptide (%), vs Glucagon” value is 12.7%. In addition, the “in vitro Activity Compared to Native Peptide (%), vs GIP” value with human GIP receptor worked out at 94.7%. In addition, the “in vitro Activity Compared to Native Peptide (%), vs GLP-1” value with human GLP-1 receptor was 90.1%.

[Acetyl(2-(4-imidazolyl))][Aib]QGTFTSDCSKYLDERAAQDFVQWLLDGGPSSGAPPPS (not fully specified (C-terminus)) [triple agonist of SEQ ID NO: 63]: the “in vitro Activity Compared to Native Peptide (%), vs Glucagon” value with human GCG receptor was less than 0.1%. Also, the “in vitro Activity Compared to Native Peptide (%), vs GIP” value with human GIP receptor was less than 0.1%. Besides, the “in vitro Activity Compared to Native Peptide (%), vs GLP-1” value in the assay with human GLP-1 receptor was 15.3%.

Y[Aib]QGTFTSDYSKCLDEKAAKEFVQWLLDHHPSSGQPPPS (bridge 16-20; not fully specified (C-terminus)) [triple agonist of SEQ ID NO: 68]: the “in vitro Activity Compared to Native Peptide (%), vs Glucagon” value in the assay with human GCG receptor was 8.8%. Besides, the “in vitro Activity Compared to Native Peptide (%), vs GIP” value with human GIP receptor is 107%. For the same molecule, the “in vitro Activity Compared to Native Peptide (%), vs GLP-1” value with human GLP-1 receptor is 27.9%.

With [Acetyl(2-(4-imidazolyl))][Aib]QGTFTSDYSIAMDEIACKDFVNWLLNTK (bridge 16-20; not fully specified (C-terminus)) [triple agonist of SEQ ID NO: 61], the “in vitro Activity Compared to Native Peptide (%), vs Glucagon” value with human GCG receptor was less than 0.1%. Besides, the “in vitro Activity Compared to Native Peptide (%), vs GIP” value with human GIP receptor turned out to be 2.8%. Moreover, in the assay with human GLP-1 receptor, the “in vitro Activity Compared to Native Peptide (%), vs GLP-1” value is 59.8%.

On to [Acetyl(2-(4-imidazolyl))][Aib]QGTFTSDYSICMDEKHQKDFVNWLLNTK (bridge 16-20; not fully specified (C-terminus)) [triple agonist of SEQ ID NO: 59], for which the “in vitro Activity Compared to Native Peptide (%), vs Glucagon” value with human GCG receptor is less than 0.1%. Moreover, the “in vitro Activity Compared to Native Peptide (%), vs GIP” value with human GIP receptor came to 4%. In addition, the “in vitro Activity Compared to Native Peptide (%), vs GLP-1” value with human GLP-1 receptor was 40.3%.

For H[Aib]QGTFTSDYSKYLDEKRQKEFVNWLLAQC (bridge 16-20; not fully specified (C-terminus)) [triple agonist of SEQ ID NO: 56], the “in vitro Activity Compared to Native Peptide (%), vs Glucagon” value in the assay with human GCG receptor stood at 4.9%. Also, the “in vitro Activity Compared to Native Peptide (%), vs GIP” value in the assay with human GIP receptor is 0.8%. Further, the “in vitro Activity Compared to Native Peptide (%), vs GLP-1” value with human GLP-1 receptor is 57.9%.

In the case of H[Aib]QGTFTSDYSIAMDEIHQKDFVNWLLNTC (bridge 16-20; not fully specified (C-terminus)) [triple agonist of SEQ ID NO: 57], the “in vitro Activity Compared to Native Peptide (%), vs Glucagon” value with human GCG receptor is less than 0.1%. In the assay with human GIP receptor, the “in vitro Activity Compared to Native Peptide (%), vs GIP” value stood at 0.3%. Moreover, the “in vitro Activity Compared to Native Peptide (%), vs GLP-1” value with human GLP-1 receptor turned out to be 11.7%.

In the case of H[Aib]QGTFTSDYSIAMDEIHQKDFVNWLLAQC (bridge 16-20; not fully specified (C-terminus)) [triple agonist of SEQ ID NO: 55], the “in vitro Activity Compared to Native Peptide (%), vs Glucagon” value in the assay with human GCG receptor worked out at 0.7%. In addition, the “in vitro Activity Compared to Native Peptide (%), vs GIP” value with human GIP receptor stood at 2.4%. Also, in the assay with human GLP-1 receptor, the “in vitro Activity Compared to Native Peptide (%), vs GLP-1” value was 27.1%.

Take [Acetyl(2-(4-imidazolyl))][Aib]QGTFTSDYSIAMDEKHCKDFVNWLLNTK (bridge 16-20; not fully specified (C-terminus)) [triple agonist of SEQ ID NO: 60]: the “in vitro Activity Compared to Native Peptide (%), vs Glucagon” value with human GCG receptor is less than 0.1%. For the same molecule, in the assay with human GIP receptor, the “in vitro Activity Compared to Native Peptide (%), vs GIP” value was 8.2%. Moreover, in the assay with human GLP-1 receptor, the “in vitro Activity Compared to Native Peptide (%), vs GLP-1” value was found to be 106%.

In the case of Y[Aib]QGTFTSDYSKCLDERAAKEFVQWLLDHHPSSGQPPPS (bridge 16-20; not fully specified (C-terminus)) [triple agonist of SEQ ID NO: 69], the “in vitro Activity Compared to Native Peptide (%), vs Glucagon” value in the assay with human GCG receptor amounted to 9.6%. For the same molecule, the “in vitro Activity Compared to Native Peptide (%), vs GIP” value with human GIP receptor was determined as 62.8%. Further, the “in vitro Activity Compared to Native Peptide (%), vs GLP-1” value with human GLP-1 receptor was determined as 24.3%.

As for H[Aib]QGTFTSDYSKCLDEKRAKEFVQWLLDHHPSSGQPPPS (bridge 16-20; not fully specified (C-terminus)) [triple agonist of SEQ ID NO: 65], in the assay with human GCG receptor, the “in vitro Activity Compared to Native Peptide (%), vs Glucagon” value was determined as 25.2%. Also, the “in vitro Activity Compared to Native Peptide (%), vs GIP” value in the assay with human GIP receptor came to 11.6%. The “in vitro Activity Compared to Native Peptide (%), vs GLP-1” value in the assay with human GLP-1 receptor turned out to be 95.4%.

B1: triple agonist of SEQ ID NO: 6 (peptide)
peptide: HXQGTFTSDVSSYLDGQAAKEFVAWLLKGC
HELM: PEPTIDE1{H.[Aib].Q.G.T.F.T.S.D.V.S.S.Y.L.D.G.Q.A.A.K.E.F.V.A.W.L.L.K.G.C.[am]}$$$$V2.0; N-terminus assumed
SMILES: CC(C)C[C@H](NC(=O)[C@H](Cc1c[nH]c2ccccc12)NC(=O)[C@H](C)NC(=O)[C@@H](NC(=O)[C@H](Cc1ccccc1)NC(=O)[C@H](CCC(=O)O)NC(=O)[C@H](CCCCN)NC(=O)[C@H](C)NC(=O)[C@H](C)NC(=O)[C@H](CCC(N)=O)NC(=O)CNC(=O)[C@H](CC(=O)O)NC(=O)[C@H](CC(C)C)NC(=O)[C@H](Cc1ccc(O)cc1)NC(=O)[C@H](CO)NC(=O)[C@H](CO)NC(=O)[C@@H](NC(=O)[C@H](CC(=O)O)NC(=O)[C@H](CO)NC(=O)[C@@H](NC(=O)[C@H](Cc1ccccc1)NC(=O)[C@@H](NC(=O)CNC(=O)[C@H](CCC(N)=O)NC(=O)C(C)(C)NC(=O)[C@@H](N)Cc1c[nH]cn1)[C@@H](C)O)[C@@H](C)O)C(C)C)C(C)C)C(=O)N[C@@H](CC(C)C)C(=O)N[C@@H](CCCCN)C(=O)NCC(=O)N[C@@H](CS)C(N)=O
Take B1: the “in vitro Activity Compared to Native Peptide (%), vs Glucagon” value with human GCG receptor was less than 0.1%. Also, in the assay with human GIP receptor, the “in vitro Activity Compared to Native Peptide (%), vs GIP” value was less than 0.1%. Besides, the “in vitro Activity Compared to Native Peptide (%), vs GLP-1” value with human GLP-1 receptor was found to be 17%.

Turning to [Acetyl(2-(4-imidazolyl))][Aib]QGTFTSDKSKYLDERAAQDFVQWLLDGGPSSGAPPPS (not fully specified (C-terminus)) [triple agonist of SEQ ID NO: 62], the “in vitro Activity Compared to Native Peptide (%), vs Glucagon” value in the assay with human GCG receptor was less than 0.1%. Further, the “in vitro Activity Compared to Native Peptide (%), vs GIP” value with human GIP receptor is less than 0.1%. Further, the “in vitro Activity Compared to Native Peptide (%), vs GLP-1” value with human GLP-1 receptor came to 5.2%.

In the case of Y[Aib]QGTFTSDYSKYLDECAAKDFVQWLLDHHPSSGQPPPS (bridge 16-20; not fully specified (C-terminus)) [triple agonist of SEQ ID NO: 67], in the assay with human GCG receptor, the “in vitro Activity Compared to Native Peptide (%), vs Glucagon” value came out at 46.2%. In addition, in the assay with human GIP receptor, the “in vitro Activity Compared to Native Peptide (%), vs GIP” value is 39.8%. Besides, the “in vitro Activity Compared to Native Peptide (%), vs GLP-1” value in the assay with human GLP-1 receptor turned out to be 28.5%.

Turning to Y[Aib]QGTFTSDYSKCLDEKRAKDFVQWLLDHHPSSGQPPPS (bridge 16-20; not fully specified (C-terminus)) [triple agonist of SEQ ID NO: 70], the “in vitro Activity Compared to Native Peptide (%), vs Glucagon” value in the assay with human GCG receptor came to 71.3%. Further, the “in vitro Activity Compared to Native Peptide (%), vs GIP” value with human GIP receptor turned out to be 64.4%. In the assay with human GLP-1 receptor, the “in vitro Activity Compared to Native Peptide (%), vs GLP-1” value was found to be 15.1%.

As for Y[Aib]QGTFTSDYSKYLDECAAKEFVQWLLDHHPSSGQPPPS (bridge 16-20; not fully specified (C-terminus)) [triple agonist of SEQ ID NO: 64], the “in vitro Activity Compared to Native Peptide (%), vs Glucagon” value with human GCG receptor stood at 60.1%. Also, in the assay with human GIP receptor, the “in vitro Activity Compared to Native Peptide (%), vs GIP” value was found to be 92.9%. Moreover, the “in vitro Activity Compared to Native Peptide (%), vs GLP-1” value in the assay with human GLP-1 receptor was 64.6%.

As for H[Aib]QGTFTSDVSKYLDGQAAKEFVAWLLKGC (not fully specified (C-terminus)) [triple agonist of SEQ ID NO: 7], the “in vitro Activity Compared to Native Peptide (%), vs Glucagon” value in the assay with human GCG receptor was less than 0.1%. In addition, in the assay with human GIP receptor, the “in vitro Activity Compared to Native Peptide (%), vs GIP” value was less than 0.1%. Moreover, the “in vitro Activity Compared to Native Peptide (%), vs GLP-1” value with human GLP-1 receptor was 13.7%.

For the molecule Y[Aib]QGTFTSDCSKYLDERAAKDFVQWLLDHHPSSGQPPPS (bridge 16-20; not fully specified (C-terminus)) [triple agonist of SEQ ID NO: 72], in the assay with human GCG receptor, the “in vitro Activity Compared to Native Peptide (%), vs Glucagon” value stood at 1%. In the assay with human GIP receptor, the “in vitro Activity Compared to Native Peptide (%), vs GIP” value turned out to be 1.6%. The “in vitro Activity Compared to Native Peptide (%), vs GLP-1” value with human GLP-1 receptor was found to be 11.5%.
